We go through 1 molecule from patent US20200308223A1 (IMMUNWORK, published 2020).

The assay deals with T1, human CD19 (human, UniProt P15391 20-556).
T1 construct: whole, on cells; also called CD19 on Raji cells; CD19 on Ramos cells
T1 sequence (looked up): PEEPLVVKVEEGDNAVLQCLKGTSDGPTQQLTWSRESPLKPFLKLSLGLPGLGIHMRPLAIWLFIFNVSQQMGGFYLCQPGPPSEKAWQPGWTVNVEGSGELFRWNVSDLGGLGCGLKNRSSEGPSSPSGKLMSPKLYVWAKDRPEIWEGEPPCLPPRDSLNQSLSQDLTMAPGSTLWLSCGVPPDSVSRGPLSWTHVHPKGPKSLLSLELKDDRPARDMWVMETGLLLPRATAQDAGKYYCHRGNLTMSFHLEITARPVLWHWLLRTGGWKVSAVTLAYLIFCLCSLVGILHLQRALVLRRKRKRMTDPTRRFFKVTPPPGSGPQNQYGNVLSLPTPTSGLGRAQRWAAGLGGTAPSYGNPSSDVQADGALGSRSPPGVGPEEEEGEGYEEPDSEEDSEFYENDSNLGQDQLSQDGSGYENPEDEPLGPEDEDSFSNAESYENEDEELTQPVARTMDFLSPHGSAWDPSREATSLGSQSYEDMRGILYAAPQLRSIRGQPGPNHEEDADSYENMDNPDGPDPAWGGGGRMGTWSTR
Nature of the assay: flow cytometry (FACS) on CD19-expressing Raji cells, 0.001 µg/ml construct, FITC goat anti-human IgG.Fc detection. The method, then:
The assay was performed by incubating 1×10⁶CD19-expressing Raji cells with 0.001 μg/ml of each construct in PBS, 1% BSA on ice for 30 minutes, using anti-CD19 antibody (RB4v1.2), (scFv α CD19)-Fc-MBM-1 X 2 DOTA bundles and (scFv α CD19)-Fc-MBM-3 X 2 DOTA bundles as positive controls. The anti-HER2 antibody (trastuzumab) was used as a negative control. The staining of cells was analyzed by FACS (FACSCanto II; BD Biosciences) using FITC-conjugated goat anti-human IgG.Fc (diluted 1:200 in PBS/BSA) (Caltag, Buckingham, UK) at 4° C. for 20 minutes in the dark.

B1: stabilized (scFv α CD19)-Fc-MBM-3 X 2 DOTA bundles (Fc fusion)
chain: EIVLTQSPAIMSASPGERVTMTCSASSGVNYMHWYQQKPGTSPRRWIYDTSKLASGVPARFSGSGSGTDYSLTISSMEPEDAATYYCHQRGSYTFGGGTKLEIKRGSTSGSGKPGSGEGSTKGQVQLVQPGAEVVKPGASVKLSCKTSGYTFTSNWMHWVKQAPGQGLEWIGEIDPSDSYTNYNQNFQGKAKLTVDKSTSTAYMEVSSLRSDDTAVYYCARGSNPYYYAMDYWGQGTSVTVSSGGGASDKTHTCPPCPAPELLGGPSVFLFPPKPKDTLMISRTPEVTCVVVDVSHEDPEVKFNWYVDGVEVHNAKTKPREEQYNSTYRVVSVLTVLHQDWLNGKDYKCKVSNKALPAPIEKTISKAKGQPREPQVYTLPPSRDELTRNQVSLTCLVKGFYPSDIAVEWESNGQPENNYKTTPPVLDSDGSFFLYSKLTVDKSRWQQGNVFSCSVMHEALHNHYTQKSLSLSPGGGGGCGGHA
modifications: cysteine residue of the C-terminal metal binding motif GCGGHA conjugated with one Mal-Peptide 2-DOTA bundle (three DOTA on a maleimido-ethyl peptide core)
notes: also called recombinant 2-chain (scFv α CD19)-Fc-MBM-3 X 2 DOTA bundles; 2-chain (VL-VH scFv α CD19)-Fc-MBM-3 conjugated with two DOTA bundles
For the molecule B1, the binding result is given as “binds”.
